What is called Kd is the constant that tells how readily two partners part at equilibrium. High values mean a looser complex, low ones a tighter complex.

This experiment addresses Biotinylated CyRPA (residues 29 to 362) with a C-terminal Avitag (P. falciparum, UniProt Q8IFM8 29-362, biotin (on the Avitag)). In words: BLI.

B1: Rh5_(proc), processed form of PfRh5 lacking the N-terminal domain (residues 145-526) (domain or fragment)
chain: LQYHFKELSNYNIANSIDILQEKEGHLDFVIIPHYTFLDYYKHLSYNSIYHKSSTYGKCIAVDAFIKKINEAYDKVKSKCNDIKNDLIATIKKLEHPYDINNKNDDSYRYDISEEIDDKSEETDDETEEVEDSIQDTDSNHAPSNKKKNDLMNRAFKKMMDEYNTKKKKLIKCIKNHENDFNKICMDMKNYGTNLFEQLSCYNNNFCNTNGIRYHYDEYIHKLILSVKSKNLNKDLSDMTNILQQSELLLTNLNKKMGSYIYIDTIKFIHKEMKHIFNRIEYHTKIINDKTKIIQDKIKLNIWRTFQKDELLKRILDMSNEYSLFITSDHLRQMLYNTFYSKEKHLNNIFHHLIYVLQMKFNDVPIKMEYFQTYKKNKPLTQ
As for B1, the dissociation constant (Kd) was found to be 179 nM.

B2: Rh5_(unproc), full-length PfRh5 (residues 26 to 526) (natural protein)
chain: ENAIKKTKNQENNLTLLPIKSTEEEKDDIKNGKDIKKEIDNDKENIKTNNAKDHSTYIKSYLNTNVNDGLKYLFIPSHNSFIKKYSVFNQINDGMLLNEKNDVKNNEDYKNVDYKNVNFLQYHFKELSNYNIANSIDILQEKEGHLDFVIIPHYTFLDYYKHLSYNSIYHKSSTYGKCIAVDAFIKKINEAYDKVKSKCNDIKNDLIATIKKLEHPYDINNKNDDSYRYDISEEIDDKSEETDDETEEVEDSIQDTDSNHAPSNKKKNDLMNRAFKKMMDEYNTKKKKLIKCIKNHENDFNKICMDMKNYGTNLFEQLSCYNNNFCNTNGIRYHYDEYIHKLILSVKSKNLNKDLSDMTNILQQSELLLTNLNKKMGSYIYIDTIKFIHKEMKHIFNRIEYHTKIINDKTKIIQDKIKLNIWRTFQKDELLKRILDMSNEYSLFITSDHLRQMLYNTFYSKEKHLNNIFHHLIYVLQMKFNDVPIKMEYFQTYKKNKPLTQ
The molecule B2 showed a Kd of 127 nM.

The values are drawn from publication PMC10113190 (2023).
